Assay results taken from patent publication US20110104715.

T1: Full-length APLP1 (APP-like protein 1), P51693
T1 chain: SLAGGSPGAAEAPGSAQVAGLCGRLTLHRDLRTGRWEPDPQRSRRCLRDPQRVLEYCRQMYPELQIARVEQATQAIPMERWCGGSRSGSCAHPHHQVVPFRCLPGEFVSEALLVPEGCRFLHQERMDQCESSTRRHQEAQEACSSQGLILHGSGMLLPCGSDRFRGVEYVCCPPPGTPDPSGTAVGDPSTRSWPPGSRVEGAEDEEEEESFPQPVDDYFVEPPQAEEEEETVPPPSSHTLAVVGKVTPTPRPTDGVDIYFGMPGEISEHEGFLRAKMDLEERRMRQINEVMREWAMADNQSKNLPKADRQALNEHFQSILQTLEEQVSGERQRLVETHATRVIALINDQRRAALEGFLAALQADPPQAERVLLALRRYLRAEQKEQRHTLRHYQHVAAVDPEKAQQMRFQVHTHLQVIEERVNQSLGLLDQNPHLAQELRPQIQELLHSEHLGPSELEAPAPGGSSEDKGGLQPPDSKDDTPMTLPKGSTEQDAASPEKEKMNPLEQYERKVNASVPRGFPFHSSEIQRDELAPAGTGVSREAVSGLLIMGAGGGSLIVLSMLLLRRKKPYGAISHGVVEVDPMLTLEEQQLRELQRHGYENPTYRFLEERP

B1: Recombinant caspase-7 (protein)
chain: AKPDRSSFVPSLFSKKKKNVTMRSIKTTRDRVPTYQYNMNFEKLGKCIIINNKNFDKVTGMGVRNGTDKDAEALFKCFRSLGFDVIVYNDCSCAKMQDLLKKASEEDHTNAACFACILLSHGEENVIYGKDGVTPIKDLTAHFRGDRCKTLLEKPKLFFIQACRGTELDDGIQADSGPINDTDANPRYKIPVEADFLFAYSTVPGYYSWRSPGRGSWFVQALCSILEEHGKDLEIMQILTRVNDRVARHFESQSDDPHFHEKKQIPCVVSMLTKELYFSQ
B2: Recombinant caspase-8 (protein)
chain: SESQTLDKVYQMKSKPRGYCLIINNHNFAKAREKVPKLHSIRDRNGTHLDAGALTTTFEELHFEIKPHDDCTVEQIYEILKIYQLMDHSNMDCFICCILSHGDKGIIYGTDGQEAPIYELTSQFTGLKCPSLAGKPKVFFIQACQGDNYQKGIPVETDSEEQPYLEMDLSSPQTRYIPDEADFLLGMATVNNCVSYRNPAEGTWYIQSLCQSLRERCPRGDDILTILTEVNYEVSNKDDKKNMGKQMPQPTFTLRKKLVFPSD
B3: Recombinant caspase-3 (protein)
chain: SGISLDNSYKMDYPEMGLCIIINNKNFHKSTGMTSRSGTDVDAANLRETFRNLKYEVRNKNDLTREEIVELMRDVSKEDHSKRSSFVCVLLSHGEEGIIFGTNGPVDLKKITNFFRGDRCRSLTGKPKLFIIQACRGTELDCGIETDSGVDDDMACHKIPVEADFLYAYSTAPGYYSWRNSKDGSWFIQSLCAMLKQYADKLEFMHILTRVNRKVATEFESFSFDATFHAKKQIPCIVSMLTKELYFYH
B4: Recombinant caspase-6 (protein)
chain: AFYKREMFDPAEKYKMDHRRRGIALIFNHERFFWHLTLPERRGTCADRDNLTRRFSDLGFEVKCFNDLKAEELLLKIHEVSTVSHADADCFVCVFLSHGEGNHIYAYDAKIEIQTLTGLFKGDKCHSLVGKPKIFIIQACRGNQHDVPVIPLDVVDNQTEKLDTNITEVDAASVYTLPAGADFLMCYSVAEGYYSHRETVNGSWYIQDLCEMLGKYGSSLEFTELLTLVNRKVSQRRVDFCKDPSAIGKKQVPCFASMLTKKLHFFPKSN

Columns and labels:
[1] = biological target: Wild-type human APP695 (β-amyloid precursor protein), P05067
[2] = biological target: APP D664A mutant (APP695), P05067
[3] = biological target: APP-C125 (C-terminal 125 amino acids of APP695), P05067
[4] = biological target: T1, Full-length APLP1 (APP-like protein 1), …
[5] = biological target: Full-length APLP2 (APP-like protein 2), Q06481
Chain of Full-length APLP2 (APP-like protein 2), Q06481 (Q06481 32-763): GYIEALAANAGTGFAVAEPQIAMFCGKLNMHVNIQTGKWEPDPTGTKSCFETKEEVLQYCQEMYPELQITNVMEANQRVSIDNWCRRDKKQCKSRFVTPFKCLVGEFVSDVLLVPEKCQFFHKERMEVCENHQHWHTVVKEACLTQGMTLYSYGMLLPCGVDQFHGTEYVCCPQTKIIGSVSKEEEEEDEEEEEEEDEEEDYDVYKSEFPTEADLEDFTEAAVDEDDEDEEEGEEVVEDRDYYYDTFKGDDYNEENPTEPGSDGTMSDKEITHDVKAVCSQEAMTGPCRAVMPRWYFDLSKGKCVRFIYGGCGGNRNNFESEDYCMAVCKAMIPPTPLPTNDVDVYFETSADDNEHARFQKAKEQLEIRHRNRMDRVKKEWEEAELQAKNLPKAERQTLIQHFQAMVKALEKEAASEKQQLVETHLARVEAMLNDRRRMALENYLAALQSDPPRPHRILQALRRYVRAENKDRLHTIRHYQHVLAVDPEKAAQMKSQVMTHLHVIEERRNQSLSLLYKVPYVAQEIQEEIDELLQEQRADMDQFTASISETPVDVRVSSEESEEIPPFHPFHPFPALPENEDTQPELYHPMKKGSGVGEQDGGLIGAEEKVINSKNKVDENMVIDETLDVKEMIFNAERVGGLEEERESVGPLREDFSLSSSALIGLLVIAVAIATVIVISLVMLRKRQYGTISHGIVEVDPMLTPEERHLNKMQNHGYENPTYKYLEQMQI

Protein	generation of an APP-Neo-immunoreactive epitope by recombinant caspase in vitro [1]	generation of an APP-Neo-immunoreactive epitope by recombinant caspase in vitro [2]	in vitro caspase cleavage [3]	in vitro cleavage of 35S-labelled in vitro transcribed/translated protein [4]	in vitro cleavage of 35S-labelled in vitro transcribed/translated protein [5]	in vitro cleavage of 35S-labelled in vitro transcribed/translated protein [1]	generation of an APP-Neo-immunoreactive epitope by recombinant caspase in vitro [4]	generation of an APP-Neo-immunoreactive epitope by recombinant caspase in vitro [5]
B1	an APP-Neo-immunoreactive epitope was detected in immunoblots of in vitro transcribed/translated full length APP that had been incubated in the presence of recombinant caspase-3, but not caspase-7 or -8	–	–	–	–	–	–	–
B2	an APP-Neo-immunoreactive epitope was detected in immunoblots of in vitro transcribed/translated full length APP that had been incubated in the presence of recombinant caspase-3, but not caspase-7 or -8	APPD664A, did not yield detectable APP-Neo immunoreactive products after incubation with recombinant caspase-3, -7 or -8	caspases-3, -6 and -8 are capable of cleaving APP	APLP1, on the other hand, was cleaved in vitro only by caspase-3, not by caspase-6 or -8	Like APLP1, APLP2 may be cleaved in vitro by caspase-3 only, but with very low efficiency, if at all	APP can be cleaved by caspases-3 and -6, but not by caspase-8	–	–
B3	an APP-Neo-immunoreactive epitope was detected in immunoblots of in vitro transcribed/translated full length APP that had been incubated in the presence of recombinant caspase-3, but not caspase-7 or -8	–	caspases-3, -6 and -8 are capable of cleaving APP	APLP1, on the other hand, was cleaved in vitro only by caspase-3, not by caspase-6 or -8	APLP2 may be cleaved in vitro by caspase-3 only, but with very low efficiency, if at all	APP can be cleaved by caspases-3 and -6, but not by caspase-8	in vitro transcribed/translated APLP1 and APLP2 yielded APP-Neo immunoreactive cleavage products only when incubated in the presence of recombinant caspase-3	in vitro transcribed/translated APLP1 and APLP2 yielded APP-Neo immunoreactive cleavage products only when incubated in the presence of recombinant caspase-3
B4	–	–	caspases-3, -6 and -8 are capable of cleaving APP	APLP1, on the other hand, was cleaved in vitro only by caspase-3, not by caspase-6 or -8	Like APLP1, APLP2 may be cleaved in vitro by caspase-3 only, but with very low efficiency, if at all	APP can be cleaved by caspases-3 and -6, but not by caspase-8	–	–
